Data taken from patent US20040043959A1, “Combination therapies for treating methylthioadenosine phosphorylase deficient cells” (priority 2002, published 2004).

Tests used:
Test in all cases: MTAP substrate assay, coupled spectrophotometric (adenine, xanthine oxidase)
Assay type in all cases: biochemical, human
Details in all cases: other: substrate of MTAP, 37° C.
[1] = substrate: CC(C)CSC[C@@H]1O[C@H](n2cnc3c(N)ncnc32)[C@H](O)[C@@H]1O
Experimental: (§1) An enzymatic assay to determine the activity of MTAP against a given substrate was performed. Human MTAP containing an N-terminal six-histidine tag was expressed in E. coli BL21 DE3 cells. The protein was purified to homogeneity by Ni2+ affinity chromatography. Enzymatic activity was measured using a coupled spectrophotometric assay designed to monitor the reaction product adenine (Savarese, T. M., Crabtree, G. W., and Parks, R. E. Jr., (1980) Biochem. Pharmacol. 30, 189-199). Various concentrations of the indicated 5′-deoxymethylthio adenosine (MTA) or substrate were incubated in assay buffer (40 mM potassium phosphate buffer, 1 mM, and DTT 0.8 units/ml xanthine oxidase coupling enzyme) for 5 minutes at 37° C. The reaction was initiated by the addition of MTAP. The exact concentration of enzyme used varied for each substrate tested and ranged from 2 nM to 500 nM. Activity as a function of enzyme concentration was determined for each substrate tested to ensure that the appropriate enzyme concentration was used. Activity was detected by continuous monitoring of absorbance at 305 nm for 10 minutes (ΔE=15,500 M^−1).
(§2) Library compounds (10 and 50 uM) were tested using the assay described above with 2 nM MTAP enzyme. The resultant initial velocities are reported as a percentage of the initial velocity observed when MTA is the substrate. MTA controls, 10 and 50 uM concentrations, were run on each plate alongside the library compounds.

[2] = substrate: CCOC(=O)CCSC[C@H]1O[C@@H](n2cnc3c(N)ncnc32)[C@H](O)[C@@H]1O
Experimental: as §1, §2

[3] = substrate: COC[C@H]1O[C@@H](n2cnc3c(N)ncnc32)[C@H](O)[C@@H]1O
Experimental: as §1, §2

[4] = substrate: COc1ccc(CSC[C@H]2O[C@@H](n3cnc4c(N)ncnc43)[C@H](O)[C@@H]2O)cc1
Experimental: as §1, §2

[5] = substrate: COc1ccc(OC[C@H]2O[C@@H](n3cnc4c(N)ncnc43)[C@H](O)[C@@H]2O)cc1
Experimental: as §1, §2

[6] = substrate: COc1ccc(SC[C@H]2O[C@@H](n3cnc4c(N)ncnc43)[C@H](O)[C@@H]2O)cc1
Experimental: as §1, §2

[7] = substrate: CSC[C@@H]1C[C@@H](O)[C@H](n2cnc3c(N)ncnc32)O1
Experimental: as §1, §2

[8] = substrate: CSC[C@H]1O[C@@H](n2cnc3c(N)ncnc32)C[C@@H]1O
Experimental: as §1, §2

[9] = substrate: Cc1ccc(SC[C@H]2O[C@@H](n3cnc4c(N)ncnc43)[C@H](O)[C@@H]2O)cc1
Experimental: as §1, §2

[10] = substrate: Cc1cccc(SC[C@H]2O[C@@H](n3cnc4c(N)ncnc43)[C@H](O)[C@@H]2O)c1
Experimental: as §1, §2

[11] = substrate: NCCSC[C@H]1O[C@@H](n2cnc3c(N)ncnc32)[C@H](O)[C@@H]1O
Experimental: as §1, §2

[12] = substrate: Nc1ncnc2c1ncn2[C@@H]1O[C@H](CNCCc2ccccn2)[C@@H](O)[C@H]1O
Experimental: as §1, §2

[13] = substrate: Nc1ncnc2c1ncn2[C@@H]1O[C@H](COc2ccccn2)[C@@H](O)[C@H]1O
Experimental: as §1, §2

[14] = substrate: Nc1ncnc2c1ncn2[C@@H]1O[C@H](COc2cccnc2)[C@@H](O)[C@H]1O
Experimental: as §1, §2

[15] = substrate: Nc1ncnc2c1ncn2[C@@H]1O[C@H](CSC2CCCC2)[C@@H](O)[C@H]1O
Experimental: as §1, §2

[16] = substrate: Nc1ncnc2c1ncn2[C@@H]1O[C@H](CSC2CCCCC2)[C@@H](O)[C@H]1O
Experimental: as §1, §2

[17] = substrate: Nc1ncnc2c1ncn2[C@@H]1O[C@H](CSc2ccc(C(F)(F)F)cc2)[C@@H](O)[C@H]1O
Experimental: as §1, §2

[18] = substrate: Nc1ncnc2c1ncn2[C@@H]1O[C@H](CSc2ccccc2)[C@@H](O)[C@H]1O
Experimental: as §1, §2

[19] = substrate: Nc1ncnc2c1ncn2[C@@H]1O[C@H](CSc2ncccn2)[C@@H](O)[C@H]1O
Experimental: as §1, §2

B1: Human MTAP (Homo sapiens) (protein)
chain: MASGTTTTAVKIGIIGGTGLDDPEILEGRTEKYVDTPFGKPSDALILGKIKNVDCVLLARHGRQHTIMPSKVNYQANIWALKEEGCTHVIVTTACGSLREEIQPGDIVIIDQFIDRTTMRPQSFYDGSHSCARGVCHIPMAEPFCPKTREVLIETAKKLGLRCHSKGTMVTIEGPRFSSRAESFMFRTWGADVINMTTVPEVVLAKEAGICYASIAMATDYDCWKEHEEAVSVDRVLKTLKENANKAKSLLLTTIPQIGSTEWSETLHNLKNMAQFSVLLPRH
notes: six-histidine tag (His6) (N); made in house; host or cells: E. coli BL21 DE3
Km [1]: 3.1 µM
kcat [1]: 2.3 s⁻¹
Km [2]: 4.3 µM
kcat [2]: 1.54 s⁻¹
Km [3]: 250 µM
kcat [3]: 0.006 s⁻¹
Km [4]: 3.7 µM
kcat [4]: 3.8 s⁻¹
Km [5]: 10 µM
kcat [5]: 0.54 s⁻¹
Km [6]: 7 µM
kcat [6]: 0.8 s⁻¹
Km [7]: 3.9 µM
kcat [7]: 0.004 s⁻¹
Km [8]: 3.3 µM
kcat [8]: 0.76 s⁻¹
Km [9]: 1.5 µM
kcat [9]: 1.44 s⁻¹
Km [10]: 2 µM
kcat [10]: 2.4 s⁻¹
Km [11]: 390 µM
kcat [11]: 0.141 s⁻¹
Km [12]: 1300 µM
kcat [12]: 0.018 s⁻¹
Km [13]: 29 µM
kcat [13]: 3.82 s⁻¹
Km [14]: 33 µM
kcat [14]: 0.126 s⁻¹
Km [15]: 3.2 µM
kcat [15]: 1.5 s⁻¹
Km [16]: 3.5 µM
kcat [16]: 1.57 s⁻¹
Km [17]: 1.7 µM
kcat [17]: 0.29 s⁻¹
Km [18]: 3 µM
kcat [18]: 1.5 s⁻¹
Km [19]: 7 µM
kcat [19]: 4.1 s⁻¹
